Two molecules from patent publication US10155796B2, “Compositions and methods for inhibiting tumor cells by inhibiting the transcription factor ATF5” (The Trustees of Columbia University in the City of New York, priority 2013, dated 2018) can be followed below.

The test system of series [1] is MEL501 melanoma cells. As to the kind of experiment: Apoptotic nuclei (Hoescht dye) in melanoma cells. In kind it is cell-based, human. To be noted: four days, concentrations in μM per FIG. 13. The protocol:
TAT-linked dominant-negative ATF5 peptide at the indicated concentrations (in μM) was added to medium of MEL501 melanoma cells. Four days later the cells were stained with Hoescht dye and the cells were stained for proportion with apoptotic nuclei.
TAT-linked dominant-negative ATF5 peptide was added to medium of MEL501 melanoma cells at the concentrations (in μM) indicated in FIG. 13. Four days later the cells were stained with Hoescht dye and the cells were stained for proportion with apoptotic nuclei.

In series [2] the test system is U87 human glioblastoma cells. In kind it is cell-based. An excerpt:
FIG. 21 depicts recombinant TAT-d/n-ATF5 treatment promoting death of cultured U87 human glioblastoma cells as indicated by Annexin V/PI staining and flow cytometry. Proportions of viable cells are shown in lower left quadrant (88% control vs 58% treated). Dying cell proportions are in the lower right and upper right quadrants (9% in controls vs 36% in treated).
As outlined in FIG. 21, Recombinant TAT-d/n-ATF5 promotes death of cultured U87 human glioblastoma cells as indicated by Annexin V/PI staining and flow cytometry. Proportions of viable cells are shown in lower left quadrant (88% control vs 58% treated). Dying cell proportions are in the lower right and upper right quadrants (9% in controls vs 36% in treated).

The subject of series [3] is MSG Cells. As to the kind of experiment: Cell viability, MTA assay. To be noted: 3 μM, 3-5 days. The format is cell-based, mouse. The protocol:
(§1) FIG. 19 depicts recombinant TAT-d/n-ATF5 (3 μM) treatment for 3-5 days decreasing viability of two human and one mouse GMB cell line as established by MTA assay.

The subject of series [4] is MDA-MB-468 (human breast cancer). As to the kind of experiment: Cell line susceptibility testing. In kind it is cell-based. To be noted: 1-3 μM range. The protocol:
(§2) For example, but not by way of limitation, cell lines shown through testing to be susceptible to TAT-d/n-ATF5 (1-3 μM range) include: U87 (human glioblastoma); U373 (human glioblastoma); LN229 (human glioblastoma); C6 (rat glioblastoma); Mel501 (human melanoma); H2452 (human mesothelioma); MDA-MB-468 (human breast cancer). In addition, a non-limiting list of cell lines shown through testing to be susceptible to PEN-d/n-ATF5 (3 μM) include: Panc-1 (human pancreatic cancer); SH-SYSY (human neuroblastoma cells); and HCT-116 (colon-carcinoma cancer). The method of the present invention can be performed in vitro as well as in vivo in a subject. As used herein, “apoptosis” refers to cell death which is wholly or partially genetically controlled.

Series [5] concerns Mel501 (human melanoma). As to the kind of experiment: Cell line susceptibility testing. To be noted: 1-3 μM range. The format is cell-based. The protocol: as §2
For series [6], the system named is U87 (human glioblastoma). The series is described as follows: Cell line susceptibility testing. The format is cell-based. Conditions: 1-3 μM range. The protocol:
as §2

In series [7] the test system is C6 (rat glioblastoma). As to the kind of experiment: Cell line susceptibility testing. The format is cell-based. Conditions: 1-3 μM range. As for the experimental part:
as §2

In series [8] the test system is H2452 (human mesothelioma). The series is described as follows: Cell line susceptibility testing. Conditions: 1-3 μM range. In kind it is cell-based. The protocol: as §2
Series [9] relates to LN229 (human glioblastoma). As to the kind of experiment: Cell line susceptibility testing. Conditions: 1-3 μM range. In kind it is cell-based. The protocol: as §2
Series [10] concerns U373 (human glioblastoma). As to the kind of experiment: Cell line susceptibility testing. In kind it is cell-based. To be noted: 1-3 μM range. As for the experimental part: as §2
Series [11] relates to BCL2 survival protein. The series is described as follows: Western immunoblotting for BCL2 in U87 cells. The format is cell-based, human. To be noted: 30 hrs. The protocol: Cultured U87 human glioblastoma cells were treated with the indicated concentrations of TATZIP (TAT-d/n-ATF5 peptide) (in μM) for 30 hrs. The cells were then harvested and assessed by Western immunoblotting for expression of the survival protein BCL2. These findings indicate that in addition to elevating pro-death CHOP, TAT-d/n-ATF5 may also kill tumor cells by reducing their levels of the BCL2 survival protein.
As outlined in FIG. 17, cultured U87 human glioblastoma cells were treated with the indicated concentrations of TATZIP (TAT-d/n-ATF5 peptide) (in μM) for 30 hrs. The cells were then harvested and assessed by Western immunoblotting for expression of the survival protein BCL2. These findings indicate that in addition to elevating pro-death CHOP, TAT-d/n-ATF5 may also kill tumor cells by reducing their levels of the BCL2 survival protein.

Series [12] relates to U373. The series is described as follows: Cell viability, MTA assay. The format is cell-based, human. To be noted: 3 μM, 3-5 days. As for the experimental part:
as §1

The subject of series [13] is U87 cells. The series is described as follows: Apoptotic nuclei in U87 cells after CHOP silencing with siRNA. In kind it is cell-based, human. Conditions: siCHOP versus control siRNA, then peptide for 2 days. The protocol:
Cells were treated with siCHOP to silence CHOP expression (top Western immunoblot) or with control siRNA. They were then exposed to TAT-d/n-ATF5 for 2 days and assessed for proportion of cells with apoptotic nuclei. The data support the idea that part of the mechanism by which TAT-d/n-ATF5 kills tumor cells is by increasing their expression of CHOP which in turn mediates death.
Cells were treated with siCHOP to silence CHOP expression (top Western immunoblot of FIG. 16) or with control siRNA. They were then exposed to TAT-d/n-ATF5 for 2 days and assessed for proportion of cells with apoptotic nuclei.

Series [14] deals with U87 glioblastoma cells. The series is described as follows: Combination with temozolomide: apoptotic nuclei in U87 cells. The format is cell-based, human. Conditions: one day, sub-lethal TZIP 1 μM and TMZ 50 μM, separately or in combination. As for the experimental part: Cells were cultured for one day with sub-lethal levels of TAT-d/n-ATF5 (TZIP 1 μM) and TMZ (50 μM) either separately or in combination, and then assessed for proportion of cells with apoptotic nuclei. TMZ is presently the first-line treatment for human GBM. The data reveal that TAT-d/n-ATF5 not only functions in presence of TMZ, but that the two drugs act in synergy to kill GBM cells.
As outlined in FIG. 18, cells were cultured for one day with sub-lethal levels of TAT-d/n-ATF5 (TZIP 1 μM) and TMZ (50 μM) either separately or in combination, and then assessed for proportion of cells with apoptotic nuclei. TMZ is presently the first-line treatment for human GBM. The data reveal that TAT-d/n-ATF5 not only functions in presence of TMZ, but that the two drugs act in synergy to kill GBM cells.

Series [15] relates to U87 human glioblastoma cells. The series is described as follows: Cell viability, MTA assay. In kind it is cell-based. The protocol:
as §1
FIG. 20 depicts synthetic PEN-d/n-ATF5 treatment decreasing cell viability of cultured U87 human glioblastoma cells as established by MTA assay. 5 days treatment at indicated concentrations (μM).
5 days treatment at indicated concentrations (μM), as detected using an MTA assay.

Series [16] concerns endogenous ATF5. As to the kind of experiment: Western immunoblotting for endogenous ATF5 in U373 glioblastoma cells. The format is cell-based, human. To be noted: 17 hrs. The protocol:
TAT-linked dominant-negative ATF5 peptide at the indicated concentrations (in μM) was added to medium of U373 glioblastoma cells for 17 hrs day and the cells were then harvested and analyzed by Western immunoblotting for levels of endogenous ATF5. […] As previous studies have shown that tumor cells require endogenous ATF5 to survive, the mechanism of action by which the cell-penetrating TAT-ZIP peptide kills may be by causing loss of the endogenous ATF5 protein. Note also the smear above the endogenous ATF5 when the TAT-ZIP peptide is present.
TAT-linked dominant-negative ATF5 peptide was added to medium of U373 glioblastoma cells at the concentrations (in μM) indicated in FIG. 14 for 17 hrs day and the cells were then harvested and analyzed by Western immunoblotting for levels of endogenous ATF5. […] As previous studies have shown that tumor cells require endogenous ATF5 to survive, but without being bound by theory, the mechanism of action by which the cell-penetrating TAT-ZIP peptide kills may be by causing loss of the endogenous ATF5 protein. Note also the smear above the endogenous ATF5 when the TAT-ZIP peptide is present.

The test system of series [17] is DDIT3 (CHOP). As to the kind of experiment: Western immunoblotting for CHOP in various tumor cell lines. Conditions: times and doses per FIG. 15. In kind it is cell-based. The protocol: Cells were treated with TAT-d/n-ATF5 for the indicated times at the indicated doses (in μM) and then harvested and analyzed by Western immunoblotting for expression of CHOP and other non-responsive proteins.
TAT-d/n-ATF5 (TAT-ZIP) peptide induces expression of the pro-death gene DDIT3 (CHOP) in various tumor cell lines. Cells were treated with TAT-d/n-ATF5 for the times and doses (in μM) indicated in FIG. 15 and then harvested and analyzed by Western immunoblotting for expression of CHOP and other non-responsive proteins.

Series [18] has as its system primary GS9-6 human glioblastoma stem cells. The series is described as follows: Annexin V/PI staining and flow cytometry of spheres. To be noted: 6 days of treatment. The format is cell-based. The text has this:
FIG. 22 depicts synthetic PEN-d/n-ATF5 promoting apoptotic death of primary GS9-6 human glioblastoma stem cells growing in culture as spheres. 6 days of treatment and data determined by Annexin V/PI staining and flow cytometry
FIG. 23 depicts recombinant PEN-d/n-ATF5 promoting apoptotic death of primary GS9-6 human glioblastoma stem cells growing in culture as spheres. 5 days of treatment and data determined by Annexin V/PI staining and flow cytometry.
Data reflects 6 days of treatment. Data determined by Annexin V/PI staining and flow cytometry.
5 days treatment. Data determined by Annexin V/PI staining and flow cytometry.

Chain of endogenous ATF5 (Q9Y2D1 208-282 limits assumed): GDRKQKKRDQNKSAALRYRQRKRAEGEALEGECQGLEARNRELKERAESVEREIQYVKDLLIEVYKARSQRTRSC

B1: TAT-d/n-ATF5: TAT-linked dominant-negative ATF5 peptide, recombinant; probably SEQ ID NO: 17 (protein)
chain: MGSSHHHHHHSSGLVPRGSHMLEYGRKKRRQRRRYPYDVPDYAMASMTGGQQMGRDPDLEQRAEELARENEELLEKEAEELEQENAELEGECQGLEARNRELRERAESV
In the case of B1, the “proportion of cells with apoptotic nuclei” value in series [1] was “promoted apoptosis in a dose-dependent fashion”. For the same molecule, the “proportion of viable cells (lower left quadrant)” value in series [2] worked out at 58%. Also, the “dying cell proportion (lower right and upper right quadrants)” value in series [2] (treated, controls 9%) is 36%. In addition, the cell viability entry in series [3] was “decreases viability”; in series [12], “decreases viability”; in series [15] (3 μM, 3-5 days), “decreases viability”. Also, the “susceptibility of cell line” value in series [4], in series [5], in [6], in series [7], in [8] and in series [9] was “susceptible” each time. The “susceptibility of cell line” value in series [10] was “susceptible”. Besides, the “expression of the survival protein BCL2” value in series [11] is recorded as “down-regulates BCL2 survival protein”. Besides, the “effect of silencing of CHOP with siRNA on death caused by the peptide” value in [13] is “partially protects”. In addition, the “cell killing in combination with temozolomide (proportion of cells with apoptotic nuclei)” value in series [14] is recorded as “synergizes with temozolomide (TMZ) to kill”. The “levels of endogenous ATF5” value in series [16] is listed as “greatly reduces expression of endogenous ATF5”. Further, the “expression of CHOP” value in series [17] is “elevation of CHOP in all cases”.

B2: synthetic PEN-d/n-ATF5: chemically synthesized Penetratin-linked dominant-negative ATF5 peptide; probably SEQ ID NO: 19 (peptide)
chain: RQIKIWFQNRRMKWKKLEQRAEELARENEELLEKEAEELEQENAELEGECQGLEARNRELKERAESV
B2: the apoptotic death entry in series [18] is reported as “promotes apoptotic death”. Further, the cell viability result in [15] (5 days treatment, concentrations (μM) per FIG. 20) was “decreases cell viability”.
